Two molecules from US20060216692, “Switchable nucleic acids for diagnostics, screening and molecular electronics” (published 2006) can be followed below.

Data set [1] concerns the target NCp7 (nucleocapsid protein, Zn2.NCp7(1-55)) (HIV-1) (UniProt P35962). Particulars: Trp assay; virtually identical Kd to 20mer.
Data set [2] deals with T1, NCp7 (nucleocapsid protein, Zn2.NCp7(1-55)) (HIV-1, UniProt P35962 SEQ:1-55).
T1 chain: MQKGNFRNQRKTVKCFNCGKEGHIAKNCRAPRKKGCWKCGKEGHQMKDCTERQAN
Briefly: Trp37 quenching, 0.2 M NaCl; equivalent of three NCp7 bound with high affinity per RNA. The following applies: about 3 per 154mer); SL1-SL4 stem-loops.

Take SL3 16mer: the binding signal (fold of SL3 20mer) in data set [1] is 1.

B1: 154mer packaging domain (ssRNA)
RNA: GGAGCUCUCUCGACGCAGGACUCGGCUUGCUGAAGCGCGCACGGCAAGAGGCGAGGGGCGGCGACUGGUGAGUACGCCAAAAAUUUUGACUAGCGGAGGCUAGAAGGAGAGAGAUGGGUGCGAGAGCGUCAGUAUUAAGCGGGGGAGAAUUAGA
As to B1, in data set [2], the binding result is reported as “binds”.
